Data: article PMC5716069
Like-named read-outs stand apart in the source and are kept apart here.

Tests used:
Loqs-PDΔNC [1] = molecular target: T1, Loqs-PDΔNC (Drosophila melanogaster, UniProt Q9VJY9-4 129-322); experiment: fluorescence anisotropy
T1 sequence: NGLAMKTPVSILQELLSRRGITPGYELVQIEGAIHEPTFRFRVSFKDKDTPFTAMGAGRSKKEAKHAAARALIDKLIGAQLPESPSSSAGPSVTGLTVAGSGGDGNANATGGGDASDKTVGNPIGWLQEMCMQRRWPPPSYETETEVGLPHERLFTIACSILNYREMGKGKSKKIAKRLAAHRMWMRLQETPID

Loqs dsRBD2 [2] = molecular target: T2, Loqs dsRBD2 (Drosophila melanogaster, UniProt Q9VJY9-4 245-322); experiment: fluorescence anisotropy
T2 sequence: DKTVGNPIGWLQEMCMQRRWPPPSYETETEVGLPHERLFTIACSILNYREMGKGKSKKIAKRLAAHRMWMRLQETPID

Loqs-PD [3] = molecular target: T3, Loqs-PD (Drosophila melanogaster, UniProt Q9VJY9-4 1-359); experiment: fluorescence anisotropy
T3 sequence: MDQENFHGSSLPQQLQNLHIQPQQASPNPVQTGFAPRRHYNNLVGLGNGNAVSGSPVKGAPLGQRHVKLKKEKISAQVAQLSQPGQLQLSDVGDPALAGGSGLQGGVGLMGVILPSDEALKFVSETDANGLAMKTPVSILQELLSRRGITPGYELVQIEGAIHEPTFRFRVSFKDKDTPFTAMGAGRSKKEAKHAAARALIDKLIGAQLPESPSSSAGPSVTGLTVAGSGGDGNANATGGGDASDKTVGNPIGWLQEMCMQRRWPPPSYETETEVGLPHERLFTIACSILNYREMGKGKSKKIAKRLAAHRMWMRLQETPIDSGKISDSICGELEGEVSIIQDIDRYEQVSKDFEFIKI

Loqs dsRBD1 [4] = molecular target: T4, Loqs dsRBD1 (Drosophila melanogaster, UniProt Q9VJY9-4 129-211); experiment: fluorescence anisotropy
T4 sequence: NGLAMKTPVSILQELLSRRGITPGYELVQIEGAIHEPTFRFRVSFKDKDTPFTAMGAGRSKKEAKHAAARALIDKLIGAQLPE

Dcr-2;Loqs-PD [5] = molecular target: T5, Dcr-2;Loqs-PD (Drosophila melanogaster;Drosophila …, UniProt A1ZAW0;Q9VJY9-4 1-1722;1-359, |); experiment: 4-thioU UV cross-linking
Loqs-PDΔNC [6] = molecular target: T1, Loqs-PDΔNC; experiment: NMR titration
Loqs dsRBD2 [7] = molecular target: T2, Loqs dsRBD2; experiment: NMR titration
Loqs dsRBD1 [8] = molecular target: T4, Loqs dsRBD1; experiment: NMR titration
Loqs-PDΔNC Δ41 = molecular target: T6, Loqs-PDΔNC Δ41 (Drosophila melanogaster, UniProt Q9VJY9-4 129-322, del209-249); experiment: NMR titration
T6 sequence: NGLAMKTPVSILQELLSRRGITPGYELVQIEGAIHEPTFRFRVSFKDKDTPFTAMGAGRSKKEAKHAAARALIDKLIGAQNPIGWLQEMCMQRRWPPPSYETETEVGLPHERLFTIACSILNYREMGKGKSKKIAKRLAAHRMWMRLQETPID

Loqs-PDΔNC [9] = molecular target: T1, Loqs-PDΔNC; experiment: NMR PRE
Dcr-2 = Dcr-2 (Drosophila melanogaster, UniProt A1ZAW0 1-1722); experiment: 4-thioU UV cross-linking
Loqs dsRBD2 [10] = molecular target: T2, Loqs dsRBD2; experiment: 4-thioU UV cross-linking
Loqs dsRBD1 [11] = molecular target: T4, Loqs dsRBD1; experiment: 4-thioU UV cross-linking
Loqs-PDΔNC [12] = molecular target: T1, Loqs-PDΔNC; experiment: 4-thioU UV cross-linking
Loqs-PD [13] = molecular target: T3, Loqs-PD; experiment: 4-thioU UV cross-linking
Dcr-2;Loqs-PD [14] = molecular target: T5, Dcr-2;Loqs-PD; experiment: 4-thioU UV cross-linking; remark: listed apart in the source
Loqs-PDΔNC [15] = molecular target: T1, Loqs-PDΔNC; experiment: NMR PRE; remark: listed apart in the source
Loqs-PDΔNC [16] = molecular target: T1, Loqs-PDΔNC; experiment: NMR
Loqs-PDΔNC [17] = molecular target: T1, Loqs-PDΔNC; experiment: fluorescence anisotropy and EMSA
Loqs dsRBD2 [18] = molecular target: T2, Loqs dsRBD2; experiment: fluorescence anisotropy and EMSA

T5 sequence (A1ZAW0 whole entry, one chain of several): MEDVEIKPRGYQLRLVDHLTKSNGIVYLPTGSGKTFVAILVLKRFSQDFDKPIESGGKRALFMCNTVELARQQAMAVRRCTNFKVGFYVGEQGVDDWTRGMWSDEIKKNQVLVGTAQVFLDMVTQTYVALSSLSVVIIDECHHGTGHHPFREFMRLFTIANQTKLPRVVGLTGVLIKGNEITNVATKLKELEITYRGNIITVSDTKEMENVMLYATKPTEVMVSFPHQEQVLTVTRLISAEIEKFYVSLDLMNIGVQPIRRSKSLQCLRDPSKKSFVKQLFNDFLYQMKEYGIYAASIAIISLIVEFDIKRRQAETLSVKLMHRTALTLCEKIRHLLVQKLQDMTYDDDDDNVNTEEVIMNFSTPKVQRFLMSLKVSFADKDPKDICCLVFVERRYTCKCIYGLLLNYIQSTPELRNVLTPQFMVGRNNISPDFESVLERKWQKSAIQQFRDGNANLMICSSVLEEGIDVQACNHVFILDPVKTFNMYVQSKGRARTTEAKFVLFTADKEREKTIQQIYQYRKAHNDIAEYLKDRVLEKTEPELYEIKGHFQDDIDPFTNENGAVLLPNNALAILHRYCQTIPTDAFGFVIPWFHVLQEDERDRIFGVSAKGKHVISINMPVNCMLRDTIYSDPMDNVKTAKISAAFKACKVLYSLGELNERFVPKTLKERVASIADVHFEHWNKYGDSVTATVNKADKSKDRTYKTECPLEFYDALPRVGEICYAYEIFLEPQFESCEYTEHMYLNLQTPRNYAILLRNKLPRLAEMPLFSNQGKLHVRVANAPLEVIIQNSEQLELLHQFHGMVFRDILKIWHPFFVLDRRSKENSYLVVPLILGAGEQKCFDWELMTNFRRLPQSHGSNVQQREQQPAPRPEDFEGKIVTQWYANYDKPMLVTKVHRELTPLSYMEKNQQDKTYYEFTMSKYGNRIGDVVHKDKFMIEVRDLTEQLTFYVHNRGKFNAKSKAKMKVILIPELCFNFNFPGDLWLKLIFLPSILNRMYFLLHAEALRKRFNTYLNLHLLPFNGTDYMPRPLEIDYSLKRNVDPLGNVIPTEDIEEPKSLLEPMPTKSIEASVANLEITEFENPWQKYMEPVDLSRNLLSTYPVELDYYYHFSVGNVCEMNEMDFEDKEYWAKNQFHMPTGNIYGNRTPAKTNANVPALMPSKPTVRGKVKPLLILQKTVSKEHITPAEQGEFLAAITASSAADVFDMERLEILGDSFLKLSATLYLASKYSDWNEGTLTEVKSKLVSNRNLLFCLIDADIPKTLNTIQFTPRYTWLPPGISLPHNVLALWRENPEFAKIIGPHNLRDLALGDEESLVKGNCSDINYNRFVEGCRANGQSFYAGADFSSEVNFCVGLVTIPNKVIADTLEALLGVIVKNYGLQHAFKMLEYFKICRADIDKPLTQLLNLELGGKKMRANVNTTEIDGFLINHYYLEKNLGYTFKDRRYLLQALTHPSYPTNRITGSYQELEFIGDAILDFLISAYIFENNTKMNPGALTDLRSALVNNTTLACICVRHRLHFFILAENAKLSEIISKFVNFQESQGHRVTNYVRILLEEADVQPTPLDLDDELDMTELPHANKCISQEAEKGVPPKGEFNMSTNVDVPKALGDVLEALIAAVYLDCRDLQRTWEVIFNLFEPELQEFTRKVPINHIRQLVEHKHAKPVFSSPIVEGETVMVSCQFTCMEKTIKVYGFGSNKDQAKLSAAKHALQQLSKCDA
Dcr-2, sequence (A1ZAW0 whole entry): as the sequence (A1ZAW0 whole entry, one chain of several) above

B1: 35 nt dsRNA, FITC (dsRNA)
RNA 1: GAUUCAUACAAGUGAGAUCAUUUUGAAAGCUGAUU
RNA 2: UCAGCUUUCAAAAUGAUCUCACUUGUAUGAAUCAA
modifications: 5'-phosphate
Kd (Loqs-PDΔNC [1]): 86 ± 18 nM | Kd (Loqs dsRBD2 [2]): 229 ± 48 nM | Kd (Loqs-PD [3]): 62 ± 5 nM | Kd (Loqs dsRBD1 [4]): 191 ± 29 nM

B2: bantam miRNA/miRNA*, FITC (dsRNA)
RNA 1: UGAGAUCAUUUUGAAAGCUGAUU
RNA 2: UCGGUUUUCGAUUUGGUUUGACU
modifications: 5'-phosphate
Kd (Loqs-PDΔNC [1]): 97 ± 21 nM | Kd (Loqs dsRBD2 [2]): 241 ± 75 nM | Kd (Loqs-PD [3]): 118 ± 17 nM | Kd (Loqs dsRBD1 [4]): 233 ± 17 nM

B3: nicked siRNA, passenger nicked, 4-thioU (dsRNA)
RNA 1: UGAGAUCAUUUUGAAAGCUGAUU
RNA 2: UCAGCUUUCAA
RNA 3: AAUGAUCUCACU
modifications: nick 11/12; 4-thiouridine in intact strand
binding result (Dcr-2;Loqs-PD [5]): binds

B4: ban-siRNA, unlabeled (dsRNA)
RNA 1: UCAGCUUUCAAAAUGAUCUCACU
RNA 2: UGAGAUCAUUUUGAAAGCUGAUU
binding result (Loqs-PDΔNC [6]): binds | binding result (Loqs dsRBD2 [7]): binds | binding result (Loqs dsRBD1 [8]): binds | binding result (Loqs-PDΔNC Δ41): binds

B5: ban-siRNA GG variant, TEMPO (dsRNA)
RNA 1: GGAGCUUUCAAAAUGAUCUCCUU
RNA 2: GGAGAUCAUUUUGAAAGCUCCUU
modifications: TEMPO at either 5' end (G1 or G24)
binding result (Loqs-PDΔNC [9]): binds

B6: ban-siRNA, 4-thioU series (dsRNA)
RNA 1: UCAGCUUUCAAAAUGAUCUCACU
RNA 2: UGAGAUCAUUUUGAAAGCUGAUU
modifications: one 4-thiouridine per duplex, position varied; 5'-phosphate
binding result (Dcr-2): binds | binding result (Loqs dsRBD2 [10]): binds | binding result (Loqs dsRBD1 [11]): binds | binding result (Loqs-PDΔNC [12]): binds | binding result (Loqs-PD [13]): binds | binding result (Dcr-2;Loqs-PD [14]): binds

B7: highly asymmetric siRNA, TEMPO (dsRNA)
RNA 1: GUAACUUUCAAAAUGAGCGCCUU
RNA 2: GGCGCUCAUUUUGAAAGUUACUU
modifications: TEMPO at either 5' end
binding result (Loqs-PDΔNC [15]): binds

B8: ban-siRNA GG variant, isotope-labeled (dsRNA)
RNA 1: GGAGCUUUCAAAAUGAUCUCCUU
RNA 2: GGAGAUCAUUUUGAAAGCUCCUU
binding result (Loqs-PDΔNC [16]): binds

B9: ban-siRNA, FITC (dsRNA)
RNA 1: UGAGAUCAUUUUGAAAGCUGAUU
RNA 2: UCAGCUUUCAAAAUGAUCUCACU
modifications: 5'-phosphate
Kd (Loqs-PDΔNC [1]): 82 ± 21 nM | Kd (Loqs dsRBD2 [2]): 278 ± 24 nM | Kd (Loqs-PD [3]): 50 ± 6 nM | Kd (Loqs dsRBD1 [4]): 228 ± 27 nM

B10: nicked siRNA, FITC (dsRNA)
RNA 1: UGAGAUCAUUUUGAAAGCUGAUU
RNA 2: UCAGCUUUCAA
RNA 3: AAUGAUCUCACU
modifications: nick between 11 and 12 of S1 strand; 5'-phosphate
binding result (Loqs-PDΔNC [17]): binds | binding result (Loqs dsRBD2 [18]): binds

B11: 14 nt RNA, FITC (dsRNA)
RNA 1: UGAGAUCAUUUUGA
RNA 2: UCAAAAUGAUCUCAUU
modifications: 5'-phosphate
Kd (Loqs-PDΔNC [1]): 128 ± 41 nM | Kd (Loqs dsRBD2 [2]): 334 ± 8 nM | Kd (Loqs-PD [3]): 118 ± 15 nM | Kd (Loqs dsRBD1 [4]): 365 ± 62 nM
